Results from patent publication US20250011418A1 (ZIELBIO, published 2025).
Like-named read-outs stand apart in the source and are kept apart here.

T1: Sec8-His (section 8 (Sec8), an antigenic region of CSP-1, tagged with a polyhistidine (His) tag)
T1 construct: also called Sec8-His antigen
T1 chain: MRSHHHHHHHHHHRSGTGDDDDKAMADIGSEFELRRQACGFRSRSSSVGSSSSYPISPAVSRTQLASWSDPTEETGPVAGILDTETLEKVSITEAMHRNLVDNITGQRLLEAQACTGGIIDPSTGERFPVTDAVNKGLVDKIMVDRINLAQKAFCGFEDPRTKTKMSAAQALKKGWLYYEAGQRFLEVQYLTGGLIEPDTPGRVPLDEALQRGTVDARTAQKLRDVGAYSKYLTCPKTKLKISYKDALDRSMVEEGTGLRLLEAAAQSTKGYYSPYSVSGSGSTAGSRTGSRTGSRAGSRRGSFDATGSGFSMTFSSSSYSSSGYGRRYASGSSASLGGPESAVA

T2: Reb-His (Reb, a sub-fragment of Sec8, tagged with a polyhistidine (His) tag)
T2 construct: also called Reb-His peptide
T2 chain: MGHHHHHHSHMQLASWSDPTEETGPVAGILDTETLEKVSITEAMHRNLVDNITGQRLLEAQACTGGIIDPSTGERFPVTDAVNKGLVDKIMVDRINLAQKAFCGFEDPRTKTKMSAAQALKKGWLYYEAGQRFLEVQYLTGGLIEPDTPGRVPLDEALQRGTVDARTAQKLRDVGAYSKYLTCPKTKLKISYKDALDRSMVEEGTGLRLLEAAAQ


How the values were obtained:
[1] = molecular target: T1, Sec8-His (section 8 (Sec8), an …); assay: BLI (Octet), single shot: antibody on anti-human IgG tips, 24 nM Sec8-His
Procedure: After humanization, the antibodies were tested for their capability to bind to an antigenic region of CSP-1 called section 8 (Sec8). Antigen binding was assessed by single-shot Octet analysis. Antibodies were loaded onto anti-human IgG tips, and the loaded tips were dipped into wells containing the Sec8-His antigen. Scouting experiments were used to determine ideal conditions for loading (10 minute incubation in 1 μg/mL IgG) and antigen binding (5 minute incubation in 24 nM Sec8-His, followed by a 5 minute dissociation step in buffer). Two negative controls were included with each experiment. First, a tip was loaded with irrelevant IgG dipped into 24 nM Sec8-His to control for non-specific interactions between the tip and the antigen. Next, tips loaded with humanized 1D7 variants were dipped into 24 nM GST-His to control for off-target binding of the antibody (a significant risk if a given variant is destabilized and/or exposes significant hydrophobic surface). The data from the irrelevant IgG control were subtracted from the data obtained with the […]-loaded tips. The mean and standard deviation of the signal change values for the GST-His control wells were used to calculate a threshold for positive binding (mean+3 standard deviations of the GST-His signal). Variants that were below this threshold are considered to have no specific binding to Sec8.

[2] = molecular target: T2, Reb-His (Reb, a sub-fragment of Sec8, …); assay: ELISA on REB-HIS, absorbance 650 nm against concentration in nM on a log axis
[3] = molecular target: T2, Reb-His (Reb, a sub-fragment of Sec8, …); assay: ELISA on REB-HIS, absorbance 650 nm; no unit stands beside the number, the concentration axis is in nM
[4] = molecular target: T1, Sec8-His (section 8 (Sec8), an …); assay: ELISA on Sec8-His (target per paragraph 36), absorbance 650 nm; curve assigned by the marker in the legend
[5] = molecular target: T2, Reb-His (Reb, a sub-fragment of Sec8, …); assay: ELISA on REB-HIS, absorbance 650 nm; no unit stands beside the number, the concentration axis is in nM
[6] = molecular target: T1, Sec8-His (section 8 (Sec8), an …); assay: ELISA on Sec8-His (target per paragraph 36), absorbance 650 nm; no unit stands beside the number, the concentration axis is in nM; number as printed beside the name, but it fits the circle curve better than the square curve
[7] = molecular target: T1, Sec8-His (section 8 (Sec8), an …); assay: ELISA on Sec8-His (target per paragraph 36), absorbance 650 nm; no unit stands beside the number, the concentration axis is in nM; number as printed beside the name, but it fits the square curve better than the circle curve

Binder	binding result [1]	other results
humanized anti-CSP-1 antibody, Antibody Number 42 (Table 1) (antibody, human IgG1, V domains shown, also called Antibody 42) VH: QIQLVQSGSELKKPGASVKVSCKASGYTFTDYSMHWVRQAPGQGLEWMGWINTETGEPTYAQGFTGRFVFSLDTSVSTAYLQISSLKAEDTAVYFCAPGGFAYWGQGTLVTVSS VL: DIVMTQSPLSLPVTPGEPASISCRSSKSLLHSNGNTYLYWFLQKPGQSPQLLIYRMSNLASGVPDRFSGSGSGTDFTLKISRVEAEDVGVYYCMQHLEYPLTFGAGTKLELK	binds	–
humanized anti-CSP-1 antibody, Antibody Number 44 (Table 1) (antibody, human IgG1, V domains shown, also called Antibody 44) VH: EVQLVESGGGLVKPGGSLRLSCAASGFTFSRYGMNWVRQAPGKGLEWVSSISIGGTYTYYADSVKGRFTISRDNAKNSLYLQMNSLRAEDTAVYYCARRGYGNYSYYGMDYWGQGTLVTVSS VL: DIVMTQSPLSLPVTPGEPASISCRSSKSLLHSNGITYLYWYLQKPGQSPQLLIYQMSNLASGVPDRFSGSGSGTDFTLKISRVEAEDVGVYYCAQNLELPLTFGQGTKLEIK	binds	–
humanized anti-CSP-1 antibody, Antibody Number 43 (Table 1) (antibody, human IgG1, V domains shown, also called Antibody 43) VH: EVQLVESGGGLVKPGGSLRLSCAASGFTFSRYGMNWVRQAPGKGLEWVSSISIGGTYTYYADSVKGRFTISRDNAKNSLYLQMNSLRAEDTAVYYCARRGYGNYSYYGMDYWGQGTLVTVSS VL: DIVMTQSPLSLPVTPGEPASISCRSSKSLLHSNGITYLYWYLQKPGQSPQLLIYQMSNRASGVPDRFSGSGSGTDFTLKISRVEAEDVGVYYCAQNLELPLTFGQGTKLEIK	binds	–
humanized anti-CSP-1 antibody, Antibody Number 8 (Table 1) (antibody, human IgG1, V domains shown, also called Antibody 8) VH: QIQLVQSGPEVKKPGASVKISCKASGYTFTDYSMHWVRQAPGQGLEWMGWINTETGEPTYAQKFQGRFTFTLDTSTSTAYLEISSLRSEDTAVYFCAPGGFAYWGQGTLVTVSS VL: DIVMTQAAPSVPVTPGESVSISCRSSKSLLHSNGNTYLYWFLQRPGQSPQLLIYRMSNLASGVPDRFSGSGSGTAFTLRISRVEAEDVGVYYCMQHLEYPLTFGAGTKLELK	binds	–
humanized anti-CSP-1 antibody, Antibody Number 40 (Table 1) (antibody, human IgG1, V domains shown, also called Antibody 40) VH: QVQLVQSGSELKKPGASVKVSCKASGYTFTDYSMNWVRQAPGQGLEWMGWINTETGEPTYAQGFTGRFVFSLDTSVSTAYLQISSLKAEDTAVYYCAPGGFAYWGQGTLVTVSS VL: DIVMTQSPLSLPVTPGEPASISCRSSKSLLHSNGNTYLYWFLQKPGQSPQLLIYRMSNRASGVPDRFSGSGSGTDFTLKISRVEAEDVGVYYCMQHLEYPLTFGQGTKLEIK	binds	–
humanized anti-CSP-1 antibody, Antibody Number 41 (Table 1) (antibody, human IgG1, V domains shown, also called Antibody 41) VH: QIQLVQSGSELKKPGASVKVSCKASGYTFTDYSMHWVRQAPGQGLEWMGWINTETGEPTYAQGFTGRFVFSLDTSVSTAYLQISSLKAEDTAVYFCAPGGFAYWGQGTLVTVSS VL: DIVMTQSPLSLPVTPGEPASISCRSSKSLLHSNGNTYLYWFLQKPGQSPQLLIYRMSNRASGVPDRFSGSGSGTDFTLKISRVEAEDVGVYYCMQHLEYPLTFGQGTKLEIK	binds	–
humanized anti-CSP-1 antibody, Antibody Number 48 (Table 1) (antibody, human IgG1, V domains shown, also called Antibody 48) VH: QIQLVQSGSELKKPGASVKVSCKASGYTFTDYSMHWVRQAPGQGLEWMGWINTETGEPTYAQGFTGRFVFSLDTSVSTAYLQISSLKAEDTAVYFCAPGGFAYWGQGTLVTVSS VL: DIVMTQSPLSLPVTPGEPASISCRSSKSLLHSNGNTYLYWFLQKPGQSPQLLIYRLSNLASGVPDRFSGSGSGTDFTLKISRVEAEDVGVYYCMQHLEYPLTFGAGTKLELK	binds	–
murine anti-CSP-1 antibody 1D7 (hybridoma clone) (antibody, V domains shown, Murine antibody) VH: EVQLVESGGDLVKPGGSLKLSCAASGFTFSRYGMSWVRQTPDKRLEWVATISIGGTYTYYPDSMKGRFTISRDNAKNTLYLQMSSLKSEDTAMYYCARRGYGNYSYYGMDYWGQGTSVTVSS VL: DIVMTQAAFSNPVTLGTSASISCRSSKSLLHSNGITYLYWYLQKPGQSPQLLIYQMSNLASGVPDRFSSSGSGTDFTLRISRVEAEDVGVYYCAQNLELPLTFGAGTKLELK	–	EC50 (read off the curve) [2]: ~0.4 nM; EC50 [3]: 0.365 nM
humanized anti-CSP-1 antibody, Antibody Number 49 (Table 1) (antibody, human IgG1, V domains shown, also called Antibody 49) VH: EVQLVESGGGLVQPGGSLRLSCAASGFTFSRYGMSWVRQAPGKRLEWVATISIGGTYTYYPDSMKGRFTISRDNSKNTLYLQMNSLRAEDTAMYYCARRGYGQYSYYGMDYWGQGTLVTVSS VL: DIVMTQSALSNPVTLGQSASISCRSSKSLLHSNGITYLYWYLQKPGQSPQLLIYQMSNRASGVPDRFSSSGSGTDFTLKISRVEAEDVGVYYCAQNLELPLTFGQGTKLEIK	binds	–
humanized anti-CSP-1 antibody, Antibody Number 45 (Table 1) (antibody, human IgG1, V domains shown, also called Antibody 45) VH: EVQLVESGGGLVKPGGSLRLSCAASGFTFSRYGMNWVRQAPGKGLEWVSSISIGGTYTYYADSVKGRFTISRDNAKNSLYLQMNSLRAEDTAVYYCARRGYGNYSYYGMDYWGQGTLVTVSS VL: DIVMTQSPLSLPVTPGEPASISCRSSKSLLHSNGITYLYWYLQKPGQSPQLLIYQMSNLASGVPDRFSSSGSGTDFTLKISRVEAEDVGVYYCAQNLELPLTFGQGTKLEIK	binds	–
humanized anti-CSP-1 antibody, Antibody Number 50 (Table 1) (antibody, human IgG1, V domains shown, also called Antibody 50) VH: EVQLVESGGGLVQPGGSLRLSCAASGFTFSRYGMSWVRQAPGKRLEWVATISIGGTYTYYPDSMKGRFTISRDNSKNTLYLQMNSLRAEDTAMYYCARRGYGQYSYYGLDYWGQGTLVTVSS VL: DIVMTQSALSNPVTLGQSASISCRSSKSLLHSNGITYLYWYLQKPGQSPQLLIYQMSNRASGVPDRFSSSGSGTDFTLKISRVEAEDVGVYYCAQNLELPLTFGQGTKLEIK	binds	–
humanized anti-CSP-1 antibody, Antibody Number 46 (Table 1) (antibody, human IgG1, V domains shown, also called Antibody 46) VH: EVQLVESGGGLVKPGGSLRLSCAASGFTFSRYGMSWVRQAPGKGLEWVSSISIGGTYTYYADSVKGRFTISRDNAKNSLYLQMNSLRAEDTAVYYCARRGYGNYSYYGMDYWGQGTLVTVSS VL: DIVMTQSPLSLPVTPGEPASISCRSSKSLLHSNGITYLYWYLQKPGQSPQLLIYQMSNLASGVPDRFSSSGSGTDFTLKISRVEAEDVGVYYCAQNLELPLTFGQGTKLEIK	binds	–
murine anti-CSP-1 antibody 1H11 (antibody, V domains shown, Murine antibody; also called 1H11B5) VH: QIQLVQSGPELKKPGETVKISCKASGYTFTDYSMHWVKQAPGKGLKWMGWINTETGEPTYADDFKGRFAFSLETSASTAYLQINNLKNEDTATYFCAPGGFAYWGQGTLVTVSA VL: DIVMTQAAPSVPVTPGESVSISCRSSKSLLHSNGNTYLYWFLQRPGQSPQLLIYRMSNLASGVPDRFSGSGSGTAFTLRISRVEAEDVGVYYCMQHLEYPLTFGAGTKLELKR	–	EC50 (read off the curve) [4]: ~0.1 nM; EC50 [5]: 0.531 nM; Kd [6]: 0.583 nM
antibody-drug conjugate comprising the murine anti-CSP-1 antibody 1H11 and the chemotherapeutic drug SN38 (antibody, V domains shown, SN38 (small-molecule drug) is conjugated to the antibody. The linker, the conjugation residues, the chain that carries it and the drug-to-antibody ratio are not stated, and the letters cannot carry it., also called 1H11-SN38 conjugate) VH: QIQLVQSGPELKKPGETVKISCKASGYTFTDYSMHWVKQAPGKGLKWMGWINTETGEPTYADDFKGRFAFSLETSASTAYLQINNLKNEDTATYFCAPGGFAYWGQGTLVTVSA VL: DIVMTQAAPSVPVTPGESVSISCRSSKSLLHSNGNTYLYWFLQRPGQSPQLLIYRMSNLASGVPDRFSGSGSGTAFTLRISRVEAEDVGVYYCMQHLEYPLTFGAGTKLELKR	–	EC50 (read off the curve) [4]: ~0.6 nM; Kd [7]: 0.14 nM
